Substitutions are numbered along the chain they refer to.
T1: mouse AIM 2CS mutant (mouse, UniProt Q9QWK4 22-352)
T1 construct: Isolated cysteine of the SRCR2 domain replaced by serine; also called mouse 2CS mutant; 2CS AIM mutant
T1 sequence (looked up): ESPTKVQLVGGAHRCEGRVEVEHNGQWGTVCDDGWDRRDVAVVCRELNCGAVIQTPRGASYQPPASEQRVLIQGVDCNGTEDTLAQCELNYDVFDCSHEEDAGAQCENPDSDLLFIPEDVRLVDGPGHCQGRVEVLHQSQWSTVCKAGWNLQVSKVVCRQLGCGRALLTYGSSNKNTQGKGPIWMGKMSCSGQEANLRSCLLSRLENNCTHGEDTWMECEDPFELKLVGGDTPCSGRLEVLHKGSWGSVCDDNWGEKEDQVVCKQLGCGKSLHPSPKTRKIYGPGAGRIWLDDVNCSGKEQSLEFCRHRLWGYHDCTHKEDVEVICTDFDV

B1: mouse apoptosis inhibitor of macrophage (AIM), wild-type recombinant (other, UniProt Q9QWK4 22-352, looked up)
chain: T1 sequence (looked up) with S173C
notes: mature; also called rAIM; mouse AIM
B2: mouse PRDX1 with a HA tag (generated in house) (ligand, UniProt P35700 1-199, looked up)
chain: MSSGNAKIGYPAPNFKATAVMPDGQFKDISLSEYKGKYVVFFFYPLDFTFVCPTEIIAFSDRADEFKKLNCQVIGASVDSHFCHLAWINTPKKQGGLGPMNIPLISDPKRTIAQDYGVLKADEGISFRGLFIIDDKGILRQITINDLPVGRSVDEIIRLVQAFQFTDKHGEVCPAGWKPGSDTIKPDVNKSKEYFSKQK
notes: also called peroxiredoxin 1; mouse PRDXs with a HA tag; not shown: HA tag
B3: human HMGB1 (1690-HMB-050, R&D Systems) (ligand, UniProt P09429 1-215, looked up)
chain: MGKGDPKKPRGKMSSYAFFVQTCREEHKKKHPDASVNFSEFSKKCSERWKTMSAKEKGKFEDMAKADKARYEREMKTYIPPKGETKKKFKDPNAPKRPPSAFFLFCSEYRPKIKGEHPGLSIGDVAKKLGEMWNNTAADDKQPYEKKAAKLKEKYEKDIAAYRAKGKPDAAKKGVVKAEKSKKKKEEEEDEEDEEDEEEEEDEEDEDEEEDDDDE
notes: also called high-mobility-group-box 1
B4: mouse PRDX2 with a HA tag (generated in house) (ligand, UniProt Q61171 1-198, looked up)
chain: MASGNAQIGKSAPDFTATAVVDGAFKEIKLSDYRGKYVVLFFYPLDFTFVCPTEIIAFSDHAEDFRKLGCEVLGVSVDSQFTHLAWINTPRKEGGLGPLNIPLLADVTKSLSQNYGVLKNDEGIAYRGLFIIDAKGVLRQITVNDLPVGRSVDEALRLVQAFQYTDEHGEVCPAGWKPGSDTIKPNVDDSKEYFSKHN
notes: also called PRDXs; not shown: HA tag
B5: mouse PRDX6 with a HA tag (generated in house) (ligand, UniProt O08709 1-224, looked up)
chain: MPGGLLLGDEAPNFEANTTIGRIRFHDFLGDSWGILFSHPRDFTPVCTTELGRAAKLAPEFAKRNVKLIALSIDSVEDHLAWSKDINAYNGETPTEKLPFPIIDDKGRDLAILLGMLDPVEKDDNNMPVTARVVFIFGPDKKLKLSILYPATTGRNFDEILRVVDSLQLTGTKPVATPVDWKKGESVMVVPTLSEEEAKQCFPKGVFTKELPSGKKYLRYTPQP
notes: as for B4
B6: mouse PRDX1-His (RPF757Mu01, USCN) (ligand, UniProt P35700 1-199, looked up)
chain: B2 chain
notes: also called RPDX; not shown: His tag
B7: mouse S100A9 (2065-S9-050, R&D Systems) (ligand, UniProt P31725 1-113, looked up)
chain: MANKAPSQMERSITTIIDTFHQYSRKEGHPDTLSKKEFRQMVEAQLATFMKKEKRNEALINDIMEDLDTNQDNQLSFEECMMLMAKLIFACHEKLHENNPRGHGHSHGKGCGK
B8: mouse S100A8/A9 (8916-S8-050, R&D Systems) (ligand)
chain 1: MPSELEKALSNLIDVYHNYSNIQGNHHALYKNDFKKMVTTECPQFVQNINIENLFRELDINSDNAINFEEFLAMVIKVGVASHKDSHKE
chain 2: B7 chain
notes: Complex of S100A8 and S100A9 as bought; also called S100A8/9
B9: mouse S100A8 (9877-S8-050, R&D Systems) (ligand, UniProt P27005 1-89, looked up)
chain: B8 chain 1
B10: human S100A9 (9254-S9-050, R&D Systems) (ligand, UniProt P06702 1-114, looked up)
chain: MTCKMSQLERNIETIINTFHQYSVKLGHPDTLNQGEFKELVRKDLQNFLKKENKNEKVIEHIMEDLDTNADKQLSFEEFIMLMARLTWASHEKMHEGDEGPGHHHKPGLGEGTP
B11: human S100A8 (9876-58-050, R&D Systems) (ligand, UniProt P05109 1-93, looked up)
chain: MLTELEKALNSIIDVYHKYSLIKGNFHAVYRDDLKKLLETECPQYIRKKGADVWFKELDINTDGAVNFQEFLILVIKMGVAAHKKSHEESHKE
B12: human S100A8/A9 (8226-S8-050, R&D Systems) (ligand)
chain 1: B11 chain
chain 2: B10 chain
notes: as for B8
B13: human apoptosis inhibitor of macrophage (AIM) (other)
chain: SPSGVRLVGGLHRCEGRVEVEQKGQWGTVCDDGWDIKDVAVLCRELGCGAASGTPSGILYEPPAEKEQKVLIQSVSCTGTEDTLAQCEQEEVYDCSHDEDAGASCENPESSFSPVPEGVRLADGPGHCKGRVEVKHQNQWYTVCQTGWSLRAAKVVCRQLGCGRAVLTQKRCNKHAYGRKPIWLSQMSCSGREATLQDCPSGPWGKNTCNHDEDTWVECEDPFDLRLVGGDNLCSGRLEVLHKGVWGSVCDDNWGEKEDQVVCKQLGCGKSLSPSFRDRKCYGPGVGRIWLDNVRCSGEEQSLEQCQHRFWGFHDCTHQEDVAVICSG
notes: also called human AIM; human rAIM

What was measured:
[1] = target: mouse HSP70-A1 (low endotoxin; ADI-ESP-502-D, Enzo) (mouse, UniProt Q61696 1-641); test: ELISA, DAMP coated at 2 µg/mL, AIM in solution (FIG. 4)
mouse HSP70-A1 (low endotoxin; ADI-ESP-502-D, Enzo), sequence (Q61696 whole entry): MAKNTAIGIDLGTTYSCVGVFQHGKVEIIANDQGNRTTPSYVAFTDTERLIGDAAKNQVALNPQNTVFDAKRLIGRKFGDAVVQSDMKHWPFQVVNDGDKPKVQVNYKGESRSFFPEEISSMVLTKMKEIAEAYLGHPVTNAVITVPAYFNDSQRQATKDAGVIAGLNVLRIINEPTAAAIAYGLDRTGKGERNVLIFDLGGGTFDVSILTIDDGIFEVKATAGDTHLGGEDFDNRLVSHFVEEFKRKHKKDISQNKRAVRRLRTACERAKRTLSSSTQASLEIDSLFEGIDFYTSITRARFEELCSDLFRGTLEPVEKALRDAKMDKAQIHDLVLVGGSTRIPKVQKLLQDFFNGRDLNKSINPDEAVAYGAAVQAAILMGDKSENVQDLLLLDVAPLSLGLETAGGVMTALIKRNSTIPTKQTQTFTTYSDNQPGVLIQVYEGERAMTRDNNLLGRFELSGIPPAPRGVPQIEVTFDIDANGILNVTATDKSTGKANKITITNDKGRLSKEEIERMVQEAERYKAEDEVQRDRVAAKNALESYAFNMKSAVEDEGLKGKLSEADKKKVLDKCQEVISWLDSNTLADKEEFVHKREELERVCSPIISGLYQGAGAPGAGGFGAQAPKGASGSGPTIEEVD
Description: (§1) Therefore, AIM is considered to stably bind to DAMPs through two independent binding modes, namely, charge-based interaction and disulfide bond formation. These two binding sites are also used to bind AIM and IgM pentamer, as previously reported by the present inventors (Hiramoto et al., (2018) (the aforementioned)). […] Furthermore, IgM pentamer not bound to AIM inhibited the binding of AIM to DAMPs in a dose-dependent manner (FIG. 3G). That is, the binding to IgM pentamer functionally inactivates AIM in the binding to DAMPs. Furthermore, the present inventors evaluated under a fluorescence microscope whether the trap and uptake of PRDX1, HMGB1, and S100A9 by macrophages in vitro is inhibited in the presence of rAIM. […] It is known that somewhat larger molecules are more easily taken up by phagocytes (Aderem & Underhill, (1999). Mechanisms of Phagocytosis in Macrophages. Annu. Rev. Immunol. 17, 593-623.; Sarrias et al., (2005) (the aforementioned); Canton et al., Scavenger receptors in homeostasis and immunity. Nat. Rev. Immunol. 13, 621-634.). Therefore, induction of PRDX1 aggregation by AIM is further advantageous for PRDX1 phagocytosis.

[2] = target: T1, mouse AIM 2CS mutant; test: ELISA on coated DAMP (FIG. 3E)
Protocol: 96-well ELISA plates were coated with DAMPs and control proteins resolved in Bicarbonate buffer (0.1 M NaHCO₃/Na₂CO₃, pH 9.6) at 2 μg/mL unless otherwise specified O/N at 4° C. After the plates were washed with tris buffered saline-tween (TBS-T) four times, they were coated with blocking buffer (1% Casein/TBS) for 2 h at RT. After a wash with TBS-T, AIM resolved in a dilution buffer (0.2% Casein/TBS/2 mM CaCl₂) at various concentrations was added to the well and plates were incubated for 1 h at RT. After 5-times wash with TBS-T/2 mM CaCl₂, biotinylated anti-mouse or human AIM antibody (clone #35 for mouse, clone 7 for human) was added to the wells and incubated for 1 h at RT. After 4-times wash with TBS-T/2 mM CaCl₂, Streptavidin-HRP diluted in 0.2% Casein/TBS/2 mM CaCl₂ was added to the wells and incubated for 1 h at RT. After 4-times wash with TBS-T/2 mM CaCl₂, TMB was added and incubated at RT for 10-25 min. The reaction was stopped by adding 1 N H₂SO₄ and thereby the absorbance at OD 450 nm was analyzed using a multiple plate reader.

[3] = target: B1; test: ELISA, DAMP coated at 2 µg/mL, AIM in solution (FIG. 3A)
Description: as §1

[4] = target: B13; test: as above
Description: as §1

[5] = target: B1; test: ELISA, DAMP coated at 2 µg/mL, AIM in solution (FIG. 4)
Description: as §1

[6] = target: B1; test: immunofluorescence co-localisation on peritoneal macrophages, confocal microscope (FIG. 3H)
Protocol: Peritoneal macrophages isolated from AIM^{-/-} mice were plated on a Lab-Tek II chamber slide (NalgeNunk) and cultured for 2 h to let them attach to the slide. The cells were incubated with 10 μg/mL of DAMPs (mouse PRDX1-His, human PRDX1-His, human HMGB1, or mouse S100A9) with or without wild-type mouse or human rAIM (100 μg/mL) at 37° C. for 10 min. For mouse PRDX1, the mutants of 2CS or ΔSRCR3 were also used. Each ligand and AIM were immunostained with antibodies to His (for mouse and human PRDX1), HMGB1 or S100A9, followed by fluorescent-conjugated secondary antibodies. Nuclei were stained with 4′,6-diamidino-2-phenylindole (DAPI). The cells were analyzed under a florescence confocal microscope.

[7] = target: B13; test: ELISA, DAMP coated at 2 µg/mL, AIM in solution (FIG. 4)
Description: as §1

[8] = target: human HSP70 (Endotoxin Free; SPR-117A, StressMarq) (human, UniProt P0DMV8 1-641); test: as above
human HSP70 (Endotoxin Free; SPR-117A, StressMarq), sequence (P0DMV8 whole entry): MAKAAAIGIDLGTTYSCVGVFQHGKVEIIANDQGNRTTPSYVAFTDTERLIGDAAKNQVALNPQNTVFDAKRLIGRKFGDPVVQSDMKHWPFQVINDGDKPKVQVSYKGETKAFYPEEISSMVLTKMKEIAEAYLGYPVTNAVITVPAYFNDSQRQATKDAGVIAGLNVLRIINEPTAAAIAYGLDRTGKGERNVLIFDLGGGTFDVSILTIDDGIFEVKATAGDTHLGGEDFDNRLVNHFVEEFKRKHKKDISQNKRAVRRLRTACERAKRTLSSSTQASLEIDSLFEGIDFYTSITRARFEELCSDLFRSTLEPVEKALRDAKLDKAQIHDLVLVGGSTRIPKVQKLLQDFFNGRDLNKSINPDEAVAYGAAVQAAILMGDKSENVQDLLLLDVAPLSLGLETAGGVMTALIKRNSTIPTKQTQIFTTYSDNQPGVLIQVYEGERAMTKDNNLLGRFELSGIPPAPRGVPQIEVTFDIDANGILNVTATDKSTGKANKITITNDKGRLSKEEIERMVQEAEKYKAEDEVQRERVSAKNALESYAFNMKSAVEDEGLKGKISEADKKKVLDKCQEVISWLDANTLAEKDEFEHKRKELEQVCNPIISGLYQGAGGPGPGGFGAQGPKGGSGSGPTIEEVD
Description: as §1

Binder: B1
- binding result [1]: binds

Binder: B2
- binding result [2]: no binding
- binding result [3]: binds

Binder: B3
- binding result [2]: no binding
- binding result [3]: binds
- binding result [4]: binds

Binder: B4
- binding result [5]: binds

Binder: B5
- binding result [5]: binds

Binder: B6
- binding result [6]: binds

Binder: B7
- binding result [2]: no binding
- binding result [3]: binds

Binder: B8
- binding result [5]: binds

Binder: B9
- binding result [5]: binds

Binder: B10
- binding result [4]: binds

Binder: B11
- binding result [7]: binds

Binder: B12
- binding result [7]: binds

Binder: B13
- binding result [8]: binds

From patent US20250108090A1 (published 2025)
